The target of test [1] is T1, huPAD2 deiminated human recombinant histone H2A (human).
T1 construct: also called H2A/p2
Put plainly: ELISA, 2 ug/well. The protocol: (§1) CFC-1 and CFC-0 were coated at the same concentration and served as positive and negative controls, respectively, for specific anti-citrulline reactivity and as coating controls. Non-coated wells were used to test for aspecific binding of the antibodies. […] Detection of bound anti-citrulline antibodies was performed by incubating the wells with rabbit-anti-human-HRP (1:2000) for one hour at RT followed by incubation with TMB substrate. The resulting OD (y-axis) is a measure for antibody binding. H1=recombinant histone 1; H1/p2=huPAD2 recombinant histone 1; H1/p4=huPAD4 recombinant histone 1 and so forth (x-axis).
Background: An ELISA detects its analyte on a solid surface through an enzyme-linked reagent.

Test [2] addresses T2, human recombinant histone H2B (human).
T2 construct: Non-deiminated
Briefly: ELISA, 2 ug/well. The protocol:
as §1

For test [3], the target named is T3, huPAD2 deiminated human recombinant histone H3 (human).
T3 construct: also called H3/p2
Briefly: ELISA, 2 ug/well. The protocol: as §1

Test [4] addresses T4, CFC-1.
T4 construct: Positive control for anti-citrulline reactivity; also called cfc1 XG
Put plainly: peptide ELISA, 10 ug/well. The protocol:
as §1, with “Biotin and citrulline-containing peptides derived from histone 2A were immobilized on NEUTRAVIDIN®-coated 96-well ELISA plates (0.3 μg/well). CFC-1” for “CFC-1”, “controls respectively” for “controls, respectively,”, “binding.” for “binding. H1=recombinant histone 1; H1/p2=huPAD2 recombinant histone 1; H1/p4=huPAD4 recombinant histone 1 and so forth (x-axis).”
(§2) Ninety-six-well ELISA plates were coated with NEUTRAVIDIN® (0.1 μg/well) by overnight incubation at 4° C. Wells were washed five times with PBS-TWEEN®-20 (PBS-T) and blocked by a one-hour incubation with PBS-T+1% Bovine serum albumin (BSA) at room temperature (RT). After five more washes with PBS-T, wells were incubated for one hour at RT with histone-derived citrulline and biotin-containing peptides (0.3 μg/well). […] Wells were washed five times with PBS-T and incubated with rabbit-anti-human-HRP (1:2000) for one hour at RT followed by five washes with PBS-T and three wash steps with PBS. Wells were incubated for five minutes with TMB substrate before stopping the reaction with 2 M H₂SO₄. Optical density was measured by 450 nm and is a measure for the affinity of the antibodies used.

Test [5] addresses T5, Histone 2A citrulline-containing peptide 1 (human, also: biotin label).
T5 construct: also called AAASGXGKQGGK
T5 peptide: AAASG[Cit]GKQGGK
Briefly: peptide ELISA, 10 ug/well. The protocol: as §1, with “Biotin and citrulline-containing peptides derived from histone 2A were immobilized on NEUTRAVIDIN®-coated 96-well ELISA plates (0.3 μg/well). CFC-1” for “CFC-1”, “controls respectively” for “controls, respectively,”, “binding.” for “binding. H1=recombinant histone 1; H1/p2=huPAD2 recombinant histone 1; H1/p4=huPAD4 recombinant histone 1 and so forth (x-axis).”
as §2

The target of test [6] is T6, Histone 2A citrulline-containing peptide 2 (human, also: biotin label).
T6 peptide: AKAKS[Cit]SSRAGL
Put plainly: peptide ELISA, 10 ug/well. The protocol:
as §1, with “Biotin and citrulline-containing peptides derived from histone 2A were immobilized on NEUTRAVIDIN®-coated 96-well ELISA plates (0.3 μg/well). CFC-1” for “CFC-1”, “controls respectively” for “controls, respectively,”, “binding.” for “binding. H1=recombinant histone 1; H1/p2=huPAD2 recombinant histone 1; H1/p4=huPAD4 recombinant histone 1 and so forth (x-axis).”
as §2

The target in test [7] is T7, Histone 2A citrulline-containing peptide 3 (human, also: biotin label).
T7 peptide: KSRSS[Cit]AGLQFP
Briefly: peptide ELISA, 10 ug/well. The protocol: as §1, with “Biotin and citrulline-containing peptides derived from histone 2A were immobilized on NEUTRAVIDIN®-coated 96-well ELISA plates (0.3 μg/well). CFC-1” for “CFC-1”, “controls respectively” for “controls, respectively,”, “binding.” for “binding. H1=recombinant histone 1; H1/p2=huPAD2 recombinant histone 1; H1/p4=huPAD4 recombinant histone 1 and so forth (x-axis).”
as §2

The target in test [8] is T8, Histone 2A citrulline-containing peptide 4 (human, also: biotin label).
T8 peptide: QFPVG[Cit]VHRLLR
Briefly: peptide ELISA, 10 ug/well. The protocol: as §1, with “Biotin and citrulline-containing peptides derived from histone 2A were immobilized on NEUTRAVIDIN®-coated 96-well ELISA plates (0.3 μg/well). CFC-1” for “CFC-1”, “controls respectively” for “controls, respectively,”, “binding.” for “binding. H1=recombinant histone 1; H1/p2=huPAD2 recombinant histone 1; H1/p4=huPAD4 recombinant histone 1 and so forth (x-axis).”
as §2

The target of test [9] is T9, Histone 2A citrulline-containing peptide 5 (human, also: biotin label).
T9 peptide: VGRVH[Cit]LLRKGN
Put plainly: peptide ELISA, 10 ug/well. Here is the method: as §1, with “Biotin and citrulline-containing peptides derived from histone 2A were immobilized on NEUTRAVIDIN®-coated 96-well ELISA plates (0.3 μg/well). CFC-1” for “CFC-1”, “controls respectively” for “controls, respectively,”, “binding.” for “binding. H1=recombinant histone 1; H1/p2=huPAD2 recombinant histone 1; H1/p4=huPAD4 recombinant histone 1 and so forth (x-axis).”
as §2

For test [10], the target named is T10, Histone 2A citrulline-containing peptide 6 (human, also: biotin label).
T10 peptide: VHRLL[Cit]KGNYSE
Put plainly: peptide ELISA, 10 ug/well. Here is the method: as §1, with “Biotin and citrulline-containing peptides derived from histone 2A were immobilized on NEUTRAVIDIN®-coated 96-well ELISA plates (0.3 μg/well). CFC-1” for “CFC-1”, “controls respectively” for “controls, respectively,”, “binding.” for “binding. H1=recombinant histone 1; H1/p2=huPAD2 recombinant histone 1; H1/p4=huPAD4 recombinant histone 1 and so forth (x-axis).”
as §2

The target in test [11] is T11, Histone 2A citrulline-containing peptide 7 (human, also: biotin label).
T11 peptide: GNYSE[Cit]VGAGAP
Briefly: peptide ELISA, 10 ug/well. Here is the method: as §1, with “Biotin and citrulline-containing peptides derived from histone 2A were immobilized on NEUTRAVIDIN®-coated 96-well ELISA plates (0.3 μg/well). CFC-1” for “CFC-1”, “controls respectively” for “controls, respectively,”, “binding.” for “binding. H1=recombinant histone 1; H1/p2=huPAD2 recombinant histone 1; H1/p4=huPAD4 recombinant histone 1 and so forth (x-axis).”
as §2

Test [12] deals with T12, Histone 2A citrulline-containing peptide 8 (human, also: biotin label).
T12 peptide: AGNAA[Cit]DNKKTR
Briefly: peptide ELISA, 10 ug/well. Here is the method: as §1, with “Biotin and citrulline-containing peptides derived from histone 2A were immobilized on NEUTRAVIDIN®-coated 96-well ELISA plates (0.3 μg/well). CFC-1” for “CFC-1”, “controls respectively” for “controls, respectively,”, “binding.” for “binding. H1=recombinant histone 1; H1/p2=huPAD2 recombinant histone 1; H1/p4=huPAD4 recombinant histone 1 and so forth (x-axis).”
as §2

The target of test [13] is T13, Histone 2A citrulline-containing peptide 9 (human, also: biotin label).
T13 peptide: DNKKT[Cit]IIPRHL
Put plainly: peptide ELISA, 10 ug/well. The protocol: as §1, with “Biotin and citrulline-containing peptides derived from histone 2A were immobilized on NEUTRAVIDIN®-coated 96-well ELISA plates (0.3 μg/well). CFC-1” for “CFC-1”, “controls respectively” for “controls, respectively,”, “binding.” for “binding. H1=recombinant histone 1; H1/p2=huPAD2 recombinant histone 1; H1/p4=huPAD4 recombinant histone 1 and so forth (x-axis).”
as §2

For test [14], the target named is T14, Histone 2A citrulline-containing peptide 10 (human, also: biotin label).
T14 peptide: TRIIP[Cit]HLQLAI
Put plainly: peptide ELISA, 10 ug/well. Here is the method:
as §1, with “Biotin and citrulline-containing peptides derived from histone 2A were immobilized on NEUTRAVIDIN®-coated 96-well ELISA plates (0.3 μg/well). CFC-1” for “CFC-1”, “controls respectively” for “controls, respectively,”, “binding.” for “binding. H1=recombinant histone 1; H1/p2=huPAD2 recombinant histone 1; H1/p4=huPAD4 recombinant histone 1 and so forth (x-axis).”
as §2

Test [15] addresses T15, Histone 2A citrulline-containing peptide 11 (human, also: biotin label).
T15 peptide: LQLAI[Cit]NDEELN
Briefly: peptide ELISA, 10 ug/well. Here is the method:
as §1, with “Biotin and citrulline-containing peptides derived from histone 2A were immobilized on NEUTRAVIDIN®-coated 96-well ELISA plates (0.3 μg/well). CFC-1” for “CFC-1”, “controls respectively” for “controls, respectively,”, “binding.” for “binding. H1=recombinant histone 1; H1/p2=huPAD2 recombinant histone 1; H1/p4=huPAD4 recombinant histone 1 and so forth (x-axis).”
as §2

The target of test [16] is T16, Histone 2A citrulline-containing peptide 12 (human, also: biotin label).
T16 peptide: NKLLG[Cit]VTIAQG
Put plainly: peptide ELISA, 10 ug/well. The protocol:
as §1, with “Biotin and citrulline-containing peptides derived from histone 2A were immobilized on NEUTRAVIDIN®-coated 96-well ELISA plates (0.3 μg/well). CFC-1” for “CFC-1”, “controls respectively” for “controls, respectively,”, “binding.” for “binding. H1=recombinant histone 1; H1/p2=huPAD2 recombinant histone 1; H1/p4=huPAD4 recombinant histone 1 and so forth (x-axis).”
as §2

Test [17] addresses T4, CFC-1. Put plainly: peptide ELISA, 0.00064 ug/well. Here is the method:
(§3) Biotin and citrulline-containing peptides derived from fibrinogen and vimentin were immobilized on NEUTRAVIDIN®-coated 96-well ELISA plates (0.3 μg/well). CFC-1 and CFC-0 were coated at the same concentration and served as positive and negative controls respectively for specific anti-citrulline reactivity and as coating controls. Non-coated wells were used to test for aspecific binding of the antibodies. […] Detection of bound anti-citrulline antibodies was performed by incubating the wells with rabbit-anti-human-HRP (1:2000) for one hour at RT followed by incubation with TMB substrate. The resulting OD (y-axis) is a measure for antibody binding.
(§4) Biotin-labeled and citrulline-containing fibrinogen and vimentin peptides (Table 5) were also tested for reactivity with the therapeutic antibodies. Peptides were coated on 96-well NEUTRAVIDIN®-ELISA plates.

Test [18] has as its target T17, msFibα XH (mouse, X at position 15 is citrulline; biotin label).
T17 peptide: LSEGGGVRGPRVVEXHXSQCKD
Briefly: peptide ELISA, 0.00064 ug/well. Here is the method: as §3, §4

The target of test [19] is T18, msFibα XG (mouse, X at position 8 is citrulline; biotin label).
T18 peptide: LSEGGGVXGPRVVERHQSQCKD
Briefly: peptide ELISA, 0.00064 ug/well. Here is the method:
as §3, §4

The target of test [20] is T19, huFibα XH (human, X at position 15 is citrulline; biotin label).
T19 peptide: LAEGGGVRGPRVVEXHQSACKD
Put plainly: peptide ELISA, 0.00064 ug/well. The protocol: as §3, §4

Test [21] addresses T20, huFibα XG (human, X at position 8 is citrulline; biotin label).
T20 peptide: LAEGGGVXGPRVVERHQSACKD
Briefly: peptide ELISA, 0.00064 ug/well. The protocol:
as §3, §4

The target of test [22] is T21, msFibβ XG (mouse, also: biotin label).
T21 peptide: EPTDSLDA[Cit]GHRPVDRR
Put plainly: peptide ELISA, 0.00064 ug/well. Here is the method: as §3, §4

Test [23] addresses T22, msVim XS/XL (mouse, also: biotin label).
T22 construct: also called mouse vimentin peptide
T22 peptide: YVT[Cit]SSAV[Cit]L[Cit]SSVP
Briefly: peptide ELISA, 0.00064 ug/well. Here is the method:
as §3, §4

Non-standard residues stand in square brackets, D forms with d. No end group written: not given here. Cit = NC(=O)NCCC[C@H](N)C(=O)O

B1: RhmAb2.102 (antibody, human IgG1, lambda)
heavy: not shown
light: QSVLTQPPSMSAAPGQKVTISCSGSSSNIGNNYVSWYQQVPGTAPKLLIYDDNKRPSGIPGRFSGSKSATSATLGITGLQAGDEADYYCGSWDDNLSVVLFGGGTKLTVLGQPKAAPSVTLFPPSSEELQANKATLVCLISDFYPGAVTVAWKADSSPVKAGVETTTPSKQSNNKYAASSYLSLTPEQWKSHRSYSCQVTHEGSTVEKTVAPTECS
notes: Human IgG1 lambda; also called Rhm2.102
Consider B1, for which the OD in test [1] came out at 3.18 OD; in test [2] it was 0.076 OD; in test [3], 1.94 OD; in [4], 3.27 OD; in test [5], 3.11 OD; in test [6] it was 0.552 OD. Moreover, the OD in test [7] worked out at 0.619 OD; in [8], 2.06 OD; in test [9], 0.239 OD; in test [10] it was 1.41 OD; in [11], 0.08 OD; in test [12], 0.082 OD. For the same molecule, the OD is 0.09 OD in test [13]; 0.091 OD in test [14]; 0.088 OD in test [15]; 0.083 OD in test [16]; 0.345 OD in test [17]; 0.088 OD in test [18]. In addition, the OD was 0.116 OD in test [19]; 0.124 OD in test [20]; 0.125 OD in test [21]; 0.133 OD in [22]; 0.154 OD in test [23].

The values are drawn from US20170298146A1 (MODIQUEST B V, published 2017).
